This test addresses Saccharomyces cerevisiae alcohol dehydrogenase (Saccharomyces cerevisiae) (UniProt P00330). In words: SEC + native MS.

What is called stoichiometry N is the number of molecules, sites or subunits per partner or assembly. In the case of “Saccharomyces cerevisiae alcohol dehydrogenase (from UniProt P00330 1-348) (enzyme)”, the stoichiometry N was 4.

(Values after paper PMC6704068.)
